Measured values from patent US20250145723A1 (MINGHUI PHARMACEUTICAL HANGZHOU, published 2025).
Numbering of substitutions follows the chain as printed.

B1: 5115-H4-M34-16-Fc (Fc fusion)
chain: EVQLVESGGGLVQPGGSLRLSCAASGRTFSSFVMGWFRQAPGKGLEFVSAISGFGSRARYADSVKGRFTISRDNSKNTLYLQMNSLRAEDTAVYYCAANPRRATPDLTQYAYWGQGTLVTVSS
notes: VHH-Fc; Fc not specified; not shown: Fc
B2: 5115-H1-M10-Fc (Fc fusion)
chain: B1 chain with R27G, G35S, G44E, L45R, F54S, R59Y, D106G, L107F
notes: as for B1
B3: 5115-H4-M52-Fc (Fc fusion)
chain: B1 chain with G26S, G35S, F54S, R59N
notes: as for B1
B4: 5115-H4-M48-Fc (Fc fusion)
chain: B1 chain with G16D, S31R, G35S, F54S, R59Y, T108R
notes: as for B1
B5: 5115-H4-M41-Fc (Fc fusion)
chain: B1 chain with F54S, L107Y, A111L
notes: as for B1
B6: 5115-H4-M39-Fc (Fc fusion)
chain: B1 chain with G35S, F54S, A58S, T108R
notes: as for B1
B7: 5115-H1-M17-Fc (Fc fusion)
chain: B1 chain with G35S, G44E, L45R, F54S, A58S, T108I
notes: as for B1
B8: 5115-H1-M3-Fc (Fc fusion)
chain: B1 chain with G35S, G44E, L45R, F54S
notes: as for B1
B9: 5115-H4-M34-Fc (Fc fusion)
chain: B1 chain with G35A, F54S
notes: as for B1
B10: 5115-H4-M34-15-Fc (Fc fusion)
chain: B1 chain with F32L, G35A, F54S
notes: as for B1
B11: 5115-H0-Fc (Fc fusion)
chain: B1 chain with G35S, G44E, L45R, F54S, R59Y, L107Y, L118Q
notes: Humanized VHH-Fc; Fc not specified; not shown: Fc
B12: 5115-Fc fusion protein (Fc fusion)
VHH: EVQLVESGGGLVQAGGSLRLSCAVSGRTFSSFVMGWFRQAPGKEREFVAAISGSGSRANYADSVKGRFTVSRDNANNTVYLQMNSLKPDDTALYYCAANPRRATPDYTQYAYWGQGTQVTVSS
notes: C-terminus of the VHH linked to the N-terminus of human Fc; not shown: The human Fc segment; Any hinge or linker is also unstated
B13: 5115-H1-Fc (Fc fusion)
chain: B1 chain with G35S, G44E, L45R, F54S, R59Y, L107Y
notes: as for B11
B14: 5115-H4-Fc (Fc fusion)
chain: B1 chain with G35S, F54S, R59Y, L107Y
notes: as for B11
B15: 5115-H3-Fc (Fc fusion)
chain: B1 chain with G35S, G44E, F54S, R59Y, L107Y
notes: as for B11
B16: 5115-H6-Fc (Fc fusion)
chain: B1 chain with G35M, G44E, L45R, F54S, R59Y, L107Y
notes: as for B11
B17: 5115-H2-Fc (Fc fusion)
chain: B1 chain with G35S, L45R, F54S, R59Y, L107Y
notes: as for B11
B18: nanobody 5115 (VHH) (VHH)
VHH: B12 VHH
B19: nanobody 5666 (VHH) (VHH)
VHH: B12 VHH with F32Y, F47L, A58S, N84S, K87R, A92G, P105T

What follows are molecules tested against T1, recombinant human IGF-1R-his (human, UniProt P08069 31-932) (assay: ELISA, coated hIGF-1R-his). Settings: not given.
T1 construct: Recombinant his-tagged protein; also called hIGF-1R-his; hIGF1R-his; not shown: his tag
Procedure: The binding activity of the nanobody-Fc fusion proteins obtained after two rounds of mutant construction with the antigen proteins (recombinant human IGF-1R-His) was detected by an ELISA method: 2 μg/mL recombinant human IGF1R-His antigen proteins were added to a 96-well ELISA plate, at 30 μL/well, for coating overnight at 4° C. The plate was washed three times with PBST. PBS containing 5% skim milk powder was added for blocking at room temperature for 2 h. The plate was washed three times with PBST. The nanobody-Fc fusion proteins were serially diluted 3-fold, and the nanobody-Fc fusion proteins of different concentrations were added to each well at 30 μL/well and incubated at room temperature for 1 h. The plate was washed three times with PBST, and horseradish peroxidase-labeled anti-human Fc antibodies were added at 30 μL/well and incubated at room temperature for 50 min. The plate was washed three times with PBST. TMB substrate solution was added at 30 μL/well for color development in the dark for 1-5 min, 30 μL of 2 M hydrochloric acid was added to terminate the reaction, and the OD₄₅₀ was read using a microplate reader. Curve fitting was conducted and the EC₅₀ value was calculated using Graphpad Prism software.

T1 sequence (P08069 31-932 limits assumed): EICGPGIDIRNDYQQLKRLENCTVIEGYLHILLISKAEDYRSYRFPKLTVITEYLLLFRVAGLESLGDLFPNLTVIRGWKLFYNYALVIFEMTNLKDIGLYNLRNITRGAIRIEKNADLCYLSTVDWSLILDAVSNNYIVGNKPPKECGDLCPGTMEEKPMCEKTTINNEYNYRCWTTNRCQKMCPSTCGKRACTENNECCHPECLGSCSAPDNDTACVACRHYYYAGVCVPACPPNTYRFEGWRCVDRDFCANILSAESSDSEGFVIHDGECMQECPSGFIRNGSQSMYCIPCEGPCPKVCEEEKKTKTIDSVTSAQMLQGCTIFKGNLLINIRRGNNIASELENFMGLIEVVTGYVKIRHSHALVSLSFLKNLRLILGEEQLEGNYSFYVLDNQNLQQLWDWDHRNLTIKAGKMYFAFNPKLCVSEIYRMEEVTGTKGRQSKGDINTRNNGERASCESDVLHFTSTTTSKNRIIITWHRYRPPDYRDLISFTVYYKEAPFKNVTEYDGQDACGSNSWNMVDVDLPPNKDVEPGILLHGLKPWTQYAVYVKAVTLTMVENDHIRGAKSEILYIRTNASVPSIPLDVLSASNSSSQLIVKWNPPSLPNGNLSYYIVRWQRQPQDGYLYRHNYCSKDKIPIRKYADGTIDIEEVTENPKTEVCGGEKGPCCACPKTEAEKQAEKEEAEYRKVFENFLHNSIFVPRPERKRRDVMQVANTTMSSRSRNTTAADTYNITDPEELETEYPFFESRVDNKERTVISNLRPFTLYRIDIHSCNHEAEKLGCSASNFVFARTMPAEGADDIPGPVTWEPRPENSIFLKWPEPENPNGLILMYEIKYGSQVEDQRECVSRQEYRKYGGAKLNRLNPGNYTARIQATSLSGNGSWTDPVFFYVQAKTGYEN

| EC50 | Molecule |
| --- | --- |
| 0.00241 µg/mL | B1 |
| 0.0017 µg/mL | B2 |
| 183 pM | B3 |
| 475 pM | B4 |
| 175 pM | B5 |
| 210 pM | B6 |
| 0.00184 µg/mL | B7 |
| 0.00122 µg/mL | B8 |
| 52 pM | B9 |
| 0.00225 µg/mL | B10 |

These molecules were tested against T2, human insulin receptor protein (human, UniProt P06213-2 28-944, limits assumed) (assay: ELISA, coated antigen 5 µg/mL). Settings: not given.
T2 construct: also called human insulin receptor proteins
Procedure: (§1) Recombinant human, monkey and mouse IGF-1R-his antigens and human insulin receptor proteins (5 μg/mL) were added to a 96-well plate for coating overnight at 4° C. The plate was washed with PBS, and then was blocked with 1% casein at room temperature for 1 h. The nanobody-Fc fusion proteins were diluted to 2 μg/mL with 0.1% BSA/PBS, added to the antigen-coated 96-well plate, and incubated at room temperature for 1 hour. The plate was washed three times with 0.1% PBST, horseradish peroxidase-labeled anti-human Fc tag antibodies (anti-human IgG-HRP, Abcam ab6759, 1:5,000, containing 1% casein) were added and incubated at room temperature for 30 min, and the plate was washed three times with 0.1% PBST. A TMB substrate solution (Thermo, 34028) was added for color development, and the OD₄₅₀ was read using a microplate reader.

T2 sequence (P06213 other isoform, or with tags, fused parts or gaps limits assumed): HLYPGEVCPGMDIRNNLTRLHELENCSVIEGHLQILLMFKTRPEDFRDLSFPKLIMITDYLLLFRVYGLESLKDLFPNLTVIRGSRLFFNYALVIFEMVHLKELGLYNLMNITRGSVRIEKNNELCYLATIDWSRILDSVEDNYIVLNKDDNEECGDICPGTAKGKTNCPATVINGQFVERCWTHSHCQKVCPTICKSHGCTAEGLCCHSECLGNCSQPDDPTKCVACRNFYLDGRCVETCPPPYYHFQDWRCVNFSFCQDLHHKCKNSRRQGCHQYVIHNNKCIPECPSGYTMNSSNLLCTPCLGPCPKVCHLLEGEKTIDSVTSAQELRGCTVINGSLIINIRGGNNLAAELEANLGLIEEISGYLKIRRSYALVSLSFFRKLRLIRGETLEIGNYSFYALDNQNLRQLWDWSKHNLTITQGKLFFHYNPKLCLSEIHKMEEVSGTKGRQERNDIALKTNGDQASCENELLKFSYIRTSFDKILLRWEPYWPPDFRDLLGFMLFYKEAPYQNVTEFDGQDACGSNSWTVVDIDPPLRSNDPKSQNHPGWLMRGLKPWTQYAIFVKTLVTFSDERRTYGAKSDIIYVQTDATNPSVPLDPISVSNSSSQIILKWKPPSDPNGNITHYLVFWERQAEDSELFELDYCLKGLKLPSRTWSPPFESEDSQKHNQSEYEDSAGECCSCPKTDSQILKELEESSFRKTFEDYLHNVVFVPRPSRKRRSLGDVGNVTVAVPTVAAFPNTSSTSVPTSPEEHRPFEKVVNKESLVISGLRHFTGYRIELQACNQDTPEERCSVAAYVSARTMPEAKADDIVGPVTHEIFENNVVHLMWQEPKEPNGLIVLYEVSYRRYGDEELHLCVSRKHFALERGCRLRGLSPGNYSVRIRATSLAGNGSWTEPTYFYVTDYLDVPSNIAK

| binding result | Molecule |
| --- | --- |
| no binding (tested: 2 µg/mL) | B11 |
| no binding (tested: 2 µg/mL) | B12 |

These molecules were tested against T3, recombinant mouse IGF-1R-his (mouse, UniProt Q60751 31-933) (assay: ELISA, coated antigen 5 µg/mL). Settings: not given.
T3 construct: not shown: his tag
Procedure: as §1

T3 sequence (Q60751 31-933 limits assumed): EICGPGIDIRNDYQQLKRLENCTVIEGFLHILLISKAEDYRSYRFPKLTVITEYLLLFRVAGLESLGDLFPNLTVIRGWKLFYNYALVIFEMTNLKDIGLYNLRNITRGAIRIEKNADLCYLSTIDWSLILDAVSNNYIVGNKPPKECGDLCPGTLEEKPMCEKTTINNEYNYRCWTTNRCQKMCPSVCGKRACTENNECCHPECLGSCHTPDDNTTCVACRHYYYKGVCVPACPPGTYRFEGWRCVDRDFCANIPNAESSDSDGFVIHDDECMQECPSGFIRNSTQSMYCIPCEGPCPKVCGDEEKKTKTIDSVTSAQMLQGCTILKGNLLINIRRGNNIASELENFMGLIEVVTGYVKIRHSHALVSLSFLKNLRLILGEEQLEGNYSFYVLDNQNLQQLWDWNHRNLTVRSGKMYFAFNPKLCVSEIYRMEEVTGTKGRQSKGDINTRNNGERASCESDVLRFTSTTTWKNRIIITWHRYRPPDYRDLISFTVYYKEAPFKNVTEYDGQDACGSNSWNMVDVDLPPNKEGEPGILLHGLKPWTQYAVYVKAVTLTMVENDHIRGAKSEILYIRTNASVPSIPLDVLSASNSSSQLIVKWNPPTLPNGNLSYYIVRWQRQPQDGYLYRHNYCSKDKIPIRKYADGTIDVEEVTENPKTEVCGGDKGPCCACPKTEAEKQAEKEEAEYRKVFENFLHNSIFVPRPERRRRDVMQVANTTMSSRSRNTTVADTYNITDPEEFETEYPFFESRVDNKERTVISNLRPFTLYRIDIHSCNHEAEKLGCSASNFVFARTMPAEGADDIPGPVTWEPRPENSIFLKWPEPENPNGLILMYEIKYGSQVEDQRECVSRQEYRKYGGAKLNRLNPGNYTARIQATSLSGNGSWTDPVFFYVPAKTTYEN

| binding result | Molecule |
| --- | --- |
| no binding (tested: 2 µg/mL) | B11 |
| no binding (tested: 2 µg/mL) | B12 |

Molecular target: T1, recombinant human IGF-1R-his
Assay: ELISA, coated hIGF-1R-his
Settings: not given
Remark: another data set of the same source
Procedure: Recombinant human IGF-1R-his antigens (2 μg/mL) were added to a 96-well plate for coating overnight at 4° C. The plate was washed three times with PBST, and then was blocked with PBST containing 5% skimmed milk powder at room temperature for 2 h. The blocking solution was discarded, the plate was washed three times with PBST, and then 30 μL of nanobody-Fc fusion proteins of different concentrations were added and incubated at room temperature for 1 h. The plate was washed 3 times with PBST, horseradish peroxidase-labeled anti-human Fc antibodies (abcam, ab97225) were added at 30 μL/well and incubated at room temperature for 1 h, and the plate was washed 3 times with PBST. TMB substrate solution was added at 30 μL/well for color development in the dark for 5-30 min, 30 μL of 2 M H₂SO₄ was added to terminate the reaction, and the OD₄₅₀ was read using a microplate reader. A curve was fit and the EC₅₀ value was calculated using Graphpad Prism software.

| EC50 [µg/mL] | Molecule |
| --- | --- |
| 0.0327 | B11 |
| 0.0369 | B13 |
| 0.0828 | B14 |
| 0.0925 | B15 |
| 0.0929 | B16 |
| 0.0652 | B17 |

Each molecule was assayed against human IGF-1R on BaF3 cells overexpressing human IGF-1R (human) (UniProt P08069) (assay: cell-based or functional assay). Settings: not given.
Sequence of human IGF-1R on BaF3 cells overexpressing human IGF-1R (human) (P08069 31-1367): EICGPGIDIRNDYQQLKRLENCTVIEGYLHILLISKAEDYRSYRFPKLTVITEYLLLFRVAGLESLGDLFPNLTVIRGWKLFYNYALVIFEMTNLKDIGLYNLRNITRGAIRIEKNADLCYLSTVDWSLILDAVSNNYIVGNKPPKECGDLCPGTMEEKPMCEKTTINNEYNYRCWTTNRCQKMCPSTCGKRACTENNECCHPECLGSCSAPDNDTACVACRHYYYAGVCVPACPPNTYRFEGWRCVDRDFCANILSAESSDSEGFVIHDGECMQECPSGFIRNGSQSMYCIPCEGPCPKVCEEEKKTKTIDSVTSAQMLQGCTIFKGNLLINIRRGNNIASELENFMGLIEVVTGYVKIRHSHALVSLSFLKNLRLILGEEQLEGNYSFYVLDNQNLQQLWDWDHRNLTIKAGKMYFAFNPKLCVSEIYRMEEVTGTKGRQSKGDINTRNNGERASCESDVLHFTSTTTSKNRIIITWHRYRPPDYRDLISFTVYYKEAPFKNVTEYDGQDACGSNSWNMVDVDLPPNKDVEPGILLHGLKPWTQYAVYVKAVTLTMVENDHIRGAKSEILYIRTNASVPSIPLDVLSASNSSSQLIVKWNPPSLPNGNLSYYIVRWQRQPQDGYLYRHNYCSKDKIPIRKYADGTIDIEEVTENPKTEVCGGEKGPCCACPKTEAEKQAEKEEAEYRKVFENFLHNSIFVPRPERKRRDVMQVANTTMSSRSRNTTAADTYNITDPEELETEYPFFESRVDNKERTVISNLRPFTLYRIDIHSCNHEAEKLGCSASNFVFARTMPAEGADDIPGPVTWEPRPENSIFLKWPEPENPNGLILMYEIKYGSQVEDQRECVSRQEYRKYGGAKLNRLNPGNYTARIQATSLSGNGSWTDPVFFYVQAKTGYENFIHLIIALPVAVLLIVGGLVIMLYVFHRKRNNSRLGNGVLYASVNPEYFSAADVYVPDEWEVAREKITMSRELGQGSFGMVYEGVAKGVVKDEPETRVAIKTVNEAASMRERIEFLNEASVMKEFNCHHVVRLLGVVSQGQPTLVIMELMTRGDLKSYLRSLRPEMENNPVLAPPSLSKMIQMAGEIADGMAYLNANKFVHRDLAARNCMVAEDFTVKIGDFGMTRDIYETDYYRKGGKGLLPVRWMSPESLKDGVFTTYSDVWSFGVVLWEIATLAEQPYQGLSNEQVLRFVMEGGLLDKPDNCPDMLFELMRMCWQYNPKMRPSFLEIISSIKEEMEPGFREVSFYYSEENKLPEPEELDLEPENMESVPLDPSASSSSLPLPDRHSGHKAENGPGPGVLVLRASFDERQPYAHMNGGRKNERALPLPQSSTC

| IC50, inhibition of IGF-1-induced proliferation of BaF3 cells overexpressing human IGF-1R [µg/mL] | Molecule |
| --- | --- |
| 0.121 | Teprotumumab (antibody) |
| 0.00816 | B9 |

Same assay, conditions: record 2

| IC50, inhibition of IGF-1-induced proliferation of BaF3 cells overexpressing human IGF-1R [µg/mL] | Molecule |
| --- | --- |
| 0.00851 | B9 |

Each molecule was assayed against T1, recombinant human IGF-1R-his (assay: competition ELISA, coated hIGF-1R-his, competitor biotinylated IGF-1). Settings: not given.
Procedure: Recombinant human IGF1R-his antigen (5 μg/mL) was added to a 96-well plate for coating overnight at 4° C. The plate was washed 4 times with 1×TBST, and then was blocked with 2% BSA at room temperature for 1.5 h. The plate was washed four times with 1×TBST, and 50 μL of nanobody-Fc fusion proteins of different concentrations (with a starting concentration of 10 μg/mL, 2-fold serially diluted) and 50 μL of biotinylated IGF-1 ([…]) were added to the antigen-coated 96-well plate and incubated at 37° C. for 1 h. The plate was washed 4 times with 1×TBST, horseradish peroxidase-labeled Streptavidin (Thermo, 21126) was added and incubated at 37° C. for 1 h, and the plate was washed 4 times with 1×TBST. TMB substrate solution was added at 200 μL per well for color development in the dark for 20 min, 50 μL of 1 M H₂SO₄ was added to terminate the reaction, and the OD₄₅₀ was read using a microplate reader. A curve was fit and the IC₅₀ value was calculated using Graphpad Prism software.

| IC50 [µg/mL] | Molecule |
| --- | --- |
| 0.435 | B12 |

Each molecule was assayed against T1, recombinant human IGF-1R-his (assay: SPR (BIAcore), hIGF-1R-his on CM5 chip, Test 1). Settings: not given.
Procedure: The affinity of the nanobody fusion proteins to recombinant human IGF-1R was detected using a BIAcore instrument. […] The flow rate was set to 10 μL/min. The chip activation time of a mixture of EDC and NHS was the default value of 420 s. The recombinant human IGF-1R-his was coupled to 800 RU on a CM5 chip under the preset coupling mode, and unbound activated groups were blocked with ethanolamine. Two-fold serially diluted nanobody-Fc fusion proteins (five concentrations of each fusion protein were detected) were injected sequentially at a flow rate of 50 μL/min at 25° C., with an association time of 120 s and a dissociation time of 600 s. A curve was fit with a 1:1 Langmuir binding model using the BIAcore T200 analysis software to determine kinetic constants such as the association rate constant, the dissociation rate constant, and the association dissociation constant.

| Kd [pM] | koff [s⁻¹] | kon [M⁻¹ s⁻¹] | Molecule |
| --- | --- | --- | --- |
| 31700 | 0.00211 | 66800 | B13 |
| 1150 | 0.00123 | 1.07e+06 | B2 |
| 101 | 0.000465 | 4.62e+06 | B7 |
| 1850 | 0.00207 | 1.12e+06 | B8 |
| 86.2 | 0.000274 | 3.18e+06 | B9 |

What follows are molecules tested against T1, recombinant human IGF-1R-his (assay: competition ELISA, coated hIGF-1R-his, competitor biotinylated IGF-1-Fc). Settings: not given.
Procedure: (§2) Recombinant human IGF-1R-his antigens (5 μg/mL) were added to a 96-well plate for coating overnight at 4° C. The plate was washed 4 times with 1×TBST, and then was blocked with 2% BSA at 37° C. for 1.5 h. The plate was washed four times with 1×TBST. A volume of 50 μL of biotinylated IGF-1-Fc (2.5 μg/mL) or IGF-2 (N-Avi & N-Fc 4 μg/mL), and 50 μL of nanobody-Fc fusion proteins of different concentrations (with a starting concentration of 10 μg/mL, 2-fold serially diluted) were added to the 96-well plate and incubated at 37° C. for 1 h. The plate was washed 4 times with 1×TBST, horseradish peroxidase-labeled Streptavidin (Thermo, 21126) was added and incubated at 37° C. for 1 h, and the plate was washed 4 times with 1×TBST. TMB substrate solution was added at 200 μL/well for color development in the dark for 20 min, 50 μL of 1 M H₂SO₄ was added to terminate the reaction, and the OD₄₅₀ was read using a microplate reader. A curve was fit and the IC₅₀ value was calculated using Graphpad Prism software.

| IC50 [µg/mL] | Molecule |
| --- | --- |
| 0.236 | B11 |
| 0.227 | B14 |
| 0.269 | B9 |

What follows are molecules tested against T1, recombinant human IGF-1R-his (assay: competition ELISA, coated hIGF-1R-his, competitor IGF-1-Fc 1.25 µg/mL). Settings: not given.
Procedure: Recombinant human IGF-1R-his antigens (5 μg/mL) were added to a 96-well plate for coating overnight at 4° C. The plate was washed with PBS, and then was blocked with 1% casein at room temperature for 1 h. The VHH samples were diluted 2-fold serially with 0.1% BSA/PBS, with a starting concentration of 20 μg/mL. […] The plate was washed three times with 0.1% PBST, horseradish peroxidase-labeled anti-human Fc tag antibodies (anti-human IgG-HRP, Abcam ab6759, 1:5,000, containing 1% casein) were added and incubated at room temperature for 30 min, and the plate was washed three times with 0.1% PBST. A TMB substrate solution (Thermo, 34028) was added for color development, the OD₄₅₀ was read using a microplate reader, and a curve was fit and the EC₅₀ value was calculated using Graphpad Prism software.

| IC50 [µg/mL] | Molecule |
| --- | --- |
| 0.24 | B18 |
| 0.7 | B19 |

Each molecule was assayed against T1, recombinant human IGF-1R-his (assay: competition ELISA, coated hIGF-1R-his, competitor IGF-2 (N-Avi & N-Fc)). Settings: not given.
Procedure: as §2

| IC50 [µg/mL] | Molecule |
| --- | --- |
| 0.177 | B11 |
| 0.152 | B14 |
| 0.237 | B9 |
